This note sets out measurements from patent US20020106772A1 (WASHINGTON STATE UNIVERSITY RESEARCH FOUNDATION, published 2002).

The target of the test is T1, geranyl diphosphate synthase small subunit from Mentha, full-length preprotein encoded by the cDNA insert of … (Mentha piperita (peppermint oil gland …)).
T1 construct: also called Mp13.18 protein; 28 kDa protein
T1 chain: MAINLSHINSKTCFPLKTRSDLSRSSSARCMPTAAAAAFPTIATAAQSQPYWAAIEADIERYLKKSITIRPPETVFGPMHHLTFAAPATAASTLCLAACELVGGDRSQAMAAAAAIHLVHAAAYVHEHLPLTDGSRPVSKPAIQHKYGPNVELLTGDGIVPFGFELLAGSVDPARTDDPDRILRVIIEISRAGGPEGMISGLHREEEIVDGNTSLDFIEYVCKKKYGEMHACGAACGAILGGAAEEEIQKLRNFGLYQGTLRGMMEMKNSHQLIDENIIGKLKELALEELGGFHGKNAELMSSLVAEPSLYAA
The experiment in a line: co-expression in E. coli, anion-exchange chromatography, activity assay. The method, then: The transformed bacteria were then induced with 1 mM IPTG and allowed to express for 24 h at 15° C. The bacteria were harvested by centrifugation, washed once with Tris buffer (pH 7.0) containing 50 mM KCl, and resuspended in 25 ml sonication buffer (25 mM Hepes, pH 7.2, 10 mM MgCl₂, 10% glycerol, 1 mM DTT, 1 mM EDTA and 1 mM benzamidine) and disrupted by brief sonication (VirSonic, 25% power, two 30 s bursts, 0-4° C.). The sonicate was centrifuged at 12,000 g (30 min), then at 195,000 g (90 min). The supernatant (soluble enzyme fraction) was loaded onto an HR 5/5 column containing Source 15Q anion-exchange separation medium (Pharmacia Biotech) that had been equilibrated with Hepes buffer (25 mM, pH 7.5) containing 10% glycerol, 10 mM MgCl₂, 1 mM DTT and 1 mM benzamidine. A step gradient of KCl (0-85 mM (10 ml); 85 mM (15 ml); 85-600 mM (20 ml)) was applied, and 2 ml fractions were collected and assayed for prenyltransferase activity using [¹⁴C]IPP and DMAPP (or GPP or FPP) as cosubstrates as described above. […]

B1: geranyl diphosphate synthase large subunit from peppermint (Mentha piperita), full-length preprotein encoded by the cDNA insert of pMp23.10, expressed from … (enzyme)
chain: MSALVNPVAKWPQTIGVKDVHGGRRRRSRSTLFQSHPLRTEMPFSLYFSSPLKAPATFSVSAVYTKEGSEIRDKDPAPSTSPAFDFDGYMLRKAKSVNKALEAAVQMKEPLKIHESMRYSLLAGGKRVRPMLCIAACELVGGDESTAMPAACAVEMIHTMSLMHDDLPCMDNDDLRRGKPTNHMAFGESVAVLAGDALLSFAFEHVAAATKGAPPERIVRVLGELAVSIGSEGLVAGQVVDVCSEGMAEVGLDHLEFIHHHKTAALLQGSVVLGAILGGGKEEEVAKLRKFANCIGLLFQVVDDILDVTKSSKELGKTAGKDLVADKTTYPKLIGVEKSKEFADRLNREAQEQLLHFHPHRAAPLIALANYIAYRDN
notes: also called Mp23.10 protein; pMp23.10 protein
With B1, the binding result is given as “binds”.
